The source of these data is publication PMC13281839.

One may read the Kd as a measure of binding affinity in units of concentration. Read a low Kd as tighter binding.

For the assay, the target named is N‐terminal half of fibrillin‐1, fragment rF90 (S19‐V1527) (UniProt P35555). As to the kind of experiment: SPR.
Sequence of UniProt P35555 (P35555 45-1527): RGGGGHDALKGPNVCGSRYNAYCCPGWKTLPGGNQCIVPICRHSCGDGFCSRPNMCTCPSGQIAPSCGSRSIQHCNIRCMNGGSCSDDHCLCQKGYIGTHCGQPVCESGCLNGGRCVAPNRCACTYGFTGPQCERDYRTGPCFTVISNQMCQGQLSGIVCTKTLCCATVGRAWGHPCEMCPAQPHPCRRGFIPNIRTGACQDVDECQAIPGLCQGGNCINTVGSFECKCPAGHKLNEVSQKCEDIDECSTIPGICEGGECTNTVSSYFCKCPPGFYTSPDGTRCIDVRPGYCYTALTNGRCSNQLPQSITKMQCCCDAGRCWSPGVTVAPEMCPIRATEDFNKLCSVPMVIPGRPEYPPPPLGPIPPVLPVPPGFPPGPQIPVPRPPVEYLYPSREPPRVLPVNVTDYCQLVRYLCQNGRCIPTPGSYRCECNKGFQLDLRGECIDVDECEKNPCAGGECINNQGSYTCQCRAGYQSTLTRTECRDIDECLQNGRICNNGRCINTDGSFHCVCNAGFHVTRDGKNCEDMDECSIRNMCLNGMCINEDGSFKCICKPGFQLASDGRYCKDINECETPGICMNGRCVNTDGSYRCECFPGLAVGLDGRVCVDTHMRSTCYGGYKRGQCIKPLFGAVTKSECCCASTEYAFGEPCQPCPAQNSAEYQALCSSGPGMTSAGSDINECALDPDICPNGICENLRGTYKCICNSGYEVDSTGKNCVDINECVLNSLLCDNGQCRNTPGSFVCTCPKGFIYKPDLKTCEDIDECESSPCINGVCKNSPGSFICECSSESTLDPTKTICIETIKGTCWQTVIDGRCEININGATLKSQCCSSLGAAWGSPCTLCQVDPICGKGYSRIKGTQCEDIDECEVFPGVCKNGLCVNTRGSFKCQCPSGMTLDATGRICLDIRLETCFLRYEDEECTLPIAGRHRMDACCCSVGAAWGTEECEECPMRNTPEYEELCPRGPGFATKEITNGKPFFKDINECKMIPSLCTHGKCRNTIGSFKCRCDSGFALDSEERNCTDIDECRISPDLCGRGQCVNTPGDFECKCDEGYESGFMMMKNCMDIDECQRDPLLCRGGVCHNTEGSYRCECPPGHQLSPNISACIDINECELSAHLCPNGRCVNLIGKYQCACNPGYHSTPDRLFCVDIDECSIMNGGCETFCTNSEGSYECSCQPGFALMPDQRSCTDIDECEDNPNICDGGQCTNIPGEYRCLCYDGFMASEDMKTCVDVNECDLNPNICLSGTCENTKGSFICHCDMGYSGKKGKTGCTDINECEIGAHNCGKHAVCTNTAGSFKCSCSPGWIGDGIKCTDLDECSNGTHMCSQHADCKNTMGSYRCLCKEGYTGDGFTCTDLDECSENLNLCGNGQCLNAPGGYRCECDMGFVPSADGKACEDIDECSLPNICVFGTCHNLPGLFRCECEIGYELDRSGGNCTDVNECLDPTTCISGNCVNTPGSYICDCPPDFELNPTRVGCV

In turn, “BMP‐7 CPLX (BMP‐7 growth factor‐prodomain complex) (from UniProt P18075 293-431)” registered a Kd of 7 nM.
